In EP1828247B1 (Crucell Holland B.V., dated 2011):

B1: SC04-271 (scFv)
scFv: EVQLVETGAEVKKPGESLRISCKGSGYTFNNYWIGWVRQMPGKGLEWMGIIYPGDSDTRYSPSVQGHVTISADKSINTAYLQWSSLKASDTAVYYCARRPGYDYGFYYFDYWGQGTLVTVSSGTGGSGGTGSGTGGSTQSALTQPRSVSGSPGQSVTISCTGTSSDVGGYNYVSWYQHHPGKAPKLMIYDVSNRPLGVSNRFSGSKSGNTASLTISGLQAEDEADYYCSSYTSSSTYVFGTGTHLTVLS
B2: SC04-311 (scFv)
scFv: EVQLVQSGGGVVQPGRSLRLSCVASGFTFSKDAMHWVRQAPGKGLEWVAVISYDGSDKHYADSVKGRVTISRDNSRKTLYLRMDSLRAEDTALYYCARGYNSGHYFDYWGQGTLITVSSGTGGSGGTGSGTGGSTQSVLTQPPSVSAAPGQKVTISCSGTSSNIGDNYVSWYQHLPGTAPKLLIYDNNKRPSGIPDRFSGSKSGTSATLGVTGLQTGDEADYYCGTWDSSLTAVVFGGGTKLTVLG
B3: SC04-289 (scFv)
scFv: QMQLVQSGAEVKKPGESLRISCKGSGYSFTSNWITWVRQMPGKGLEWMGRIDPSDSYTNYSPSFQGHVTISADKSISTAYLQWSSLKASDTAMYYCARDVVGVGASDYYYYMDVWGKGTTVTVSSGTGGSGGTGSGTGGSTEIVLTQSPGTLSLSPGETATLSCRTSQSVSSSYLGWYQQKPGQAPRLLIYGASIRATGIPARFSGSGSGTEFTLTIDSLQSEDFAVYYCQQYNNWPPITFGQGTRLEIKR
B4: SC04-299 (scFv)
scFv: EVQLVETGGGVVQPGRSLRLSCAASGFTFSGYAMHWVRQAPGKGLDWVAVISYDGSEKYSADSVKGRFTISRDNSKNTLYLQMNSLRAEDTAVYYCAKESGGPIWYKYYGVDVWGQGTTVTVSSGTGGSGGTGSGTGGSTSYVLTQPPSLSAAPRQRVTISCSGSSSNIGNYGVNWYQQLPGKAPKLLIYYDDLLPSGVSDRFSGSKSGTSASLAISGLQSEDEGDYYCAAWDDTLSAWVFGGGTKLTVLG
B5: SC04-283 (scFv)
scFv: EVQLVQSGAEVKKSGESLKISCKGSGYTFNTYWIGWVRQMPGKGLEWMGIIYPGDSDTIYSPSFQGQVTISADKSISTAYLQWSSLKASDSAMYYCARLTFRRGYSGSDSFLPPGDFDYWGQGTLVTVSSGTGGSGGTGSGTGGSTDIQMTQSPSTLSASVGDRVTITCRASQSISSWLAWYQQKPGKAPNLLIYAASSLQSGVPSRFSGSGSGTDFTLTISSLQPDDSATYYCQQYNTYPLTFGGGTKVEIKR
B6: SC04-361 (scFv)
scFv: EVQLVQSGAEVKKPGESLKISCKASGFSFSTYWIGWVRQMPGKGLEWMGIIYPADSDTRYSPSFQGQVTISADKSISTAYLQWSSLKASDTAMYYCARLRGPYYDFWNGYRETHDAFNVWGQGTMVTVSSGTGGSGGTGSGTGGSTDVVMTQSPDSLAVSLGERATINCKSSQNILDNSDNKNFLAWYQQKPGQPPKLLIYWASARESGVPDRFSGSGSGTDFTLTISSLQAEDVALYYCQQYYNTPITFGQGTRLEIKR
B7: SC04-353 (scFv)
scFv: EVQLVQSGGGVVQPGRSLRLSCAASGFTFSNYAMHWVRQAPGKGLEWVAVISYDGGNKYYADSVKGRFTMSRDNSKNTLYLQMNSLRAEDTAVYYCARDFWSGYSMVDSYYYYMDVWGKGTTVTVSSGTGGSGGTGSGTGGSTETTLTQSPGTLSLSPGERATLSCRASQSVSNTFLAWYQQKPGQAPRLLIYGASSRATGIPDRFSGSGSGTDFTLTISRLEPEDFAAYYCQQYGSSLTFGPGTKVDIKR

Each binder was assayed against T1, West Nile virus strain USA99b (strain 385-99), whole virus (West Nile virus strain 385-99 (USA99b)) (assay: phage antibody ELISA on coated whole inactivated WNV).
T1 construct: also called WN virus; WNV

| Binder | OD 492nm [OD 492nm] |
| --- | --- |
| B1 | 0.984 |
| B2 | 1.04 |
| B3 | 0.759 |
| B4 | 1.07 |
| B5 | 1.21 |

These binders were tested against T2, recombinantly expressed purified soluble WNV E protein (strain 382-99), truncated form with Myc and His tags (West Nile virus strain 382-99, UniProt Q9Q6P4 291-696) (assay: phage antibody ELISA on coated recombinant soluble WNV E protein).
T2 construct: also called recombinant WNV-E protein; truncated E protein; not shown: Myc tag and His tag from pAdapt.myc.his
T2 sequence: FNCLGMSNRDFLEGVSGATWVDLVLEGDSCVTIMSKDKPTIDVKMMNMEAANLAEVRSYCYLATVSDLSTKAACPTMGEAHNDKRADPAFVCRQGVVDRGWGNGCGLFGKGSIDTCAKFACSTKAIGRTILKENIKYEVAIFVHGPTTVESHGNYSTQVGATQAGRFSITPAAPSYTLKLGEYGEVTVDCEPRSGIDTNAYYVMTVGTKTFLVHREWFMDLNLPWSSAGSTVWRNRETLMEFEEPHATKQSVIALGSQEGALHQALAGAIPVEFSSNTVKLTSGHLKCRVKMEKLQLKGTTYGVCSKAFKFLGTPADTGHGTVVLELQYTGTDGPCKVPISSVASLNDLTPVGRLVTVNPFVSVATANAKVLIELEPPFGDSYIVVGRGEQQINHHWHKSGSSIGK

| Binder | OD 492nm [OD 492nm] |
| --- | --- |
| B1 | 0.608 |
| B6 | 0.076 |
| B4 | 0.072 |
| B5 | 0.074 |
| B7 | 0.099 |

Biological target: T2, recombinantly expressed purified …
Test: as above
Remark: another data set of the same source

| Binder | binding result |
| --- | --- |
| B6 | no binding |
| B7 | no binding |
